Consider 2 molecules from article doi:10.1101/2024.07.05.602318 (bioRxiv, 2024).

This experiment has as its target CLPX-3xFLAG (human, UniProt O76031 65-633). In words: co-IP.

CLPX-3xFLAG, sequence (O76031 65-633): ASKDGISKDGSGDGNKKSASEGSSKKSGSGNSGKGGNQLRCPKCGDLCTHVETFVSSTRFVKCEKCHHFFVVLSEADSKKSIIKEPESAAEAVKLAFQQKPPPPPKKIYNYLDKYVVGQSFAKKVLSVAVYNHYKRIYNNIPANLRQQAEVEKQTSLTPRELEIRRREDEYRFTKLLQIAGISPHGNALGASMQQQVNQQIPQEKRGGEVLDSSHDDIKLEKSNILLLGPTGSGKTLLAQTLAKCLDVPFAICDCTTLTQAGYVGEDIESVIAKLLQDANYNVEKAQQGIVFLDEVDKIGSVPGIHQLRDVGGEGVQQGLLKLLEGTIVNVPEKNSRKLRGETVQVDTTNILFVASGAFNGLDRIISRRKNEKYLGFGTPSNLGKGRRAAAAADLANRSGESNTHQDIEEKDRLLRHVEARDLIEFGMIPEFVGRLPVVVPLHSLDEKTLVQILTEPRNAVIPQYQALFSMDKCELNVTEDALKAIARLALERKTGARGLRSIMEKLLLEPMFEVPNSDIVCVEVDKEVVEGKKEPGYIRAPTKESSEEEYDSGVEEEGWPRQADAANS

B1: POLDIP2 H225A, residues 52-368 (natural protein, human, UniProt Q9Y2S7 52-368, looked up)
chain: SSRNRPEGKVLETVGVFEVPKQNGKYETGQLFLHSIFGYRGVVLFPWQARLYDRDVASAAPEKAENPAGHGSKEVKGKTHTYYQVLIDARDCPHISQRSQTEAVTFLANHDDSRALYAIPGLDYVSHEDILPYTSTDQVPIQHELFERFLLYDQTKAPPFVARETLRAWQEKNAPWLELSDVHRETTENIRVTVIPFYMGMREAQNSHVYWWRYCIRLENLDSDVVQLRERHWRIFSLSGTLETVRGRGVVGREPVLSKEQPAFQYSSHVSLQASSGHMWGTFRFERPDGSHFDVRIPPFSLESNKDEKTPPSGLHW
On to B1, for which the binding result is given as “binds”.

B2: POLDIP2 (DNA polymerase delta interacting protein 2), residues 52-368 (natural protein, human, UniProt Q9Y2S7 52-368, looked up)
chain: SSRNRPEGKVLETVGVFEVPKQNGKYETGQLFLHSIFGYRGVVLFPWQARLYDRDVASAAPEKAENPAGHGSKEVKGKTHTYYQVLIDARDCPHISQRSQTEAVTFLANHDDSRALYAIPGLDYVSHEDILPYTSTDQVPIQHELFERFLLYDQTKAPPFVARETLRAWQEKNHPWLELSDVHRETTENIRVTVIPFYMGMREAQNSHVYWWRYCIRLENLDSDVVQLRERHWRIFSLSGTLETVRGRGVVGREPVLSKEQPAFQYSSHVSLQASSGHMWGTFRFERPDGSHFDVRIPPFSLESNKDEKTPPSGLHW
B2: the binding result is “binds”.
